Measurements from CN107022030A (GUANGDONG GUYING BIOTECHNOLOGY INDUSTRIAL RES INSTITUTE CO …, dated 2017).

Key:
[1] = molecular target: T1, 人血清白蛋白(human serum albumin，HSA) (human, UniProt P02768 25-609); assay: indirect ELISA, HSA as cross-reaction antigen
T1 construct: Used at 40 mg/ml as the cross-reaction antigen; also called HAS

[2] = molecular target: 人甲胎蛋白(human alpha fetoprotein，hAFP) (human) (UniProt P02771); assay: ELISA titre of ascites antibody on hAFP
UniProt P02771, sequence (P02771 19-609): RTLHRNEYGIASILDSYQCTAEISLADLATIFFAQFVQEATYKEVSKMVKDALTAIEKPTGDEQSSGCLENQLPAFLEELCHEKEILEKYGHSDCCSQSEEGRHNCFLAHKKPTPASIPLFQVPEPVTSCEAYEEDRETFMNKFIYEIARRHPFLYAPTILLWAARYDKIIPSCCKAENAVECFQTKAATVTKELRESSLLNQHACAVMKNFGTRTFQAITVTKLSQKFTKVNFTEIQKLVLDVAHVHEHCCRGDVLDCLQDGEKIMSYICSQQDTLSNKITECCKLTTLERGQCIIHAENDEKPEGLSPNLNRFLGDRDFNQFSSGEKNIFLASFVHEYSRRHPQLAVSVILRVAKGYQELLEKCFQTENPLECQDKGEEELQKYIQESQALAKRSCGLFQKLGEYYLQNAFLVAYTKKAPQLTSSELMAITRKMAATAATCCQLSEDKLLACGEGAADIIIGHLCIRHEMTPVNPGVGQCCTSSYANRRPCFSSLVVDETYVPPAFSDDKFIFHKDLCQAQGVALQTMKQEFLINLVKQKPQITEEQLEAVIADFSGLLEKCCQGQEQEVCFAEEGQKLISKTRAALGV

T1 sequence (P02768 25-609): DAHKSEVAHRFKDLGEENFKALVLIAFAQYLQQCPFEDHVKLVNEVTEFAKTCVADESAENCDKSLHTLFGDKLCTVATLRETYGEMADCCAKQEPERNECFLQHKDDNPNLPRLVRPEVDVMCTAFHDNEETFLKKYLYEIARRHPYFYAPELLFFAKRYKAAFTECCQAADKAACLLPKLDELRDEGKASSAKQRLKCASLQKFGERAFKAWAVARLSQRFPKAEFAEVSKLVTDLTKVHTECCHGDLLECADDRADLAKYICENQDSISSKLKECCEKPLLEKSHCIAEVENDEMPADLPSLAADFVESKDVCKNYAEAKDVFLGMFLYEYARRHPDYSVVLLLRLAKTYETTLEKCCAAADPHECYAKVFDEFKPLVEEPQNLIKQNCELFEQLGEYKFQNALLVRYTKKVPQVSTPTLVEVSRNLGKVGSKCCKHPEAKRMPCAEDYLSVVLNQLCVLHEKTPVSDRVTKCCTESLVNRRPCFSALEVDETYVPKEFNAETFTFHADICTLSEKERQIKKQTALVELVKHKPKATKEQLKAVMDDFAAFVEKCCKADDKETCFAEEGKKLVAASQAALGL

B1: 单克隆抗体Ab3 (antibody, V domains shown)
VH: VKLQESGAELVKPGASVKLSCTASGFNIKDTYMHWVKQRPEQGLEWIGGIDPANGKTKFDPKFQGKATITADTSSNTAYLHLSRLTSDDTAVYYCVRGQVGGRGWFAYWGQGTTVTVSS
VL: DIQLTQSPSSLSASLGERVSLTCRASQEISGYLSWLQRKPDGTIKRLIYAASTLDSGVPKRFSGSRSGSDYSLTISSLESEDFADYYCLQYASYPYTFGGGTKL
notes: Mouse monoclonal IgG from hybridoma ascites, Protein G purified; HRP-labelled in the immunohistochemistry; also called Ab3-HRP
binding result [1]: no binding (tested: 40mg/ml)

B2: 单克隆抗体Ab4 (antibody, part only; not given: light chain variable region, constant regions, V domains shown, part only)
VH: VKLQQSGPELVKPGASVTLSCKASGYTFTSYYIHWVKQRPGQELEWIGWIYPGNVNTKYNEKFKGKATLTADKSSSTAYMQLSSLTSEDSAVYFCARCSGRLYYAMDYWGQGTTVTVSS
腹水效价 [2]: < 3e+07
